The results in this text go back to US20050222029A1 (MYRIAD GENETICS, published 2005).

What all share (experiment): yeast two-hybrid
In experiment [1] the target is T1, Protein kinase C and casein kinase substrate (PACSIN2) 174-367 (human, UniProt Q9UNF0 174-367).
T1 construct: prey (Gal4 AD-HA fusion)
T1 sequence (looked up): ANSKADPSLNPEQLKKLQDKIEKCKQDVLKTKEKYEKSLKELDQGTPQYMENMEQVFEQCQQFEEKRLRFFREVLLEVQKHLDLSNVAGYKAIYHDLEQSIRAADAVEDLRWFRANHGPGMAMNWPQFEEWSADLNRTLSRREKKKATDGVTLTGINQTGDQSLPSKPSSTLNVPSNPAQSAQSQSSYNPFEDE

Another experiment concerns the target T2, VPS28 protein 10-221 (human, UniProt Q9UK41 10-221).
T2 construct: prey (Gal4 AD-HA fusion); also called vacuolar protein sorting 28
T2 sequence (looked up): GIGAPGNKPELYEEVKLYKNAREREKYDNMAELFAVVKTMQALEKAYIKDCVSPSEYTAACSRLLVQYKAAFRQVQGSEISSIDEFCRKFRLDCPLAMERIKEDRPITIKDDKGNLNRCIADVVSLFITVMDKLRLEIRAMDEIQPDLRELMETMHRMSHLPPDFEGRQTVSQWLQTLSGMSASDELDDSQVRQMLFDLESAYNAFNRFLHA

The target of experiment [2] is T3, golgi autoantigen, golgin subfamily a, 5 (Golgin-84) 609-731 (human, UniProt Q8TBA6 609-731).
T3 construct: prey (Gal4 AD-HA fusion)
T3 sequence (looked up): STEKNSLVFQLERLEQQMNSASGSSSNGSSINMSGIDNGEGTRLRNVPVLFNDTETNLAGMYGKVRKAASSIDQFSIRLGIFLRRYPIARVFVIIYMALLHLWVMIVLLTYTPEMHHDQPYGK

Experiment [3] deals with T4, Charcot-Leyden crystal protein; periplakin (PPL) 1548-1756 (human, UniProt O60437 1548-1756).
T4 construct: prey (Gal4 AD-HA fusion)
T4 sequence (looked up): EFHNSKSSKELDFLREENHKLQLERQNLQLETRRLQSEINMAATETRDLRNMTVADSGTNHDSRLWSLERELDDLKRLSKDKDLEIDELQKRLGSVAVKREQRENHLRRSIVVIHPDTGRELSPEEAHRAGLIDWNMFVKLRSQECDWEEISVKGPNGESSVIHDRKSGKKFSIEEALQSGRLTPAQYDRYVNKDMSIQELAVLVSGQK

The target in experiment [4] is T5, Chromosome-associated polypeptide HCAP (HCAP) 119-353 (human, UniProt Q9UQE7 119-353).
T5 construct: prey (Gal4 AD-HA fusion)

The next experiment addresses T6, PIBF1 392-758 (human, UniProt Q8WXW3 392-757).
T6 construct: prey (Gal4 AD-HA fusion)
T6 sequence (looked up): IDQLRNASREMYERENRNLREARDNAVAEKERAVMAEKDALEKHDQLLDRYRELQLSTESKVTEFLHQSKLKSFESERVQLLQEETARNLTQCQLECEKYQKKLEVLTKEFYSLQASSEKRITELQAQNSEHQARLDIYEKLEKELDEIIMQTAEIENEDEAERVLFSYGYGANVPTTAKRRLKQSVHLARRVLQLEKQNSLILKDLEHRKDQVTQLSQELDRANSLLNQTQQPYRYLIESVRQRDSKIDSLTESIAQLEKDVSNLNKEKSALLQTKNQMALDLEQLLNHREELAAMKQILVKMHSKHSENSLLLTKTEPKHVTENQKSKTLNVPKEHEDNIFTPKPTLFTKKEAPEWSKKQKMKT

T5 sequence (Q9UQE7 119-353 limits assumed): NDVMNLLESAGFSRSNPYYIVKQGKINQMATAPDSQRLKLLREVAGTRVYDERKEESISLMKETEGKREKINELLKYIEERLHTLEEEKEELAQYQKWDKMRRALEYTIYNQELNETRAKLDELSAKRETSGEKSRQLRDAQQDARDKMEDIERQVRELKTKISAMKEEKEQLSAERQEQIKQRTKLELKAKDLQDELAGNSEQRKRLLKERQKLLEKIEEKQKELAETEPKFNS

B1: Tumor Suppressor (TSG101) 265-391 (other, human, UniProt Q99816 265-390, looked up)
chain: KGHQKLEEMVTRLDQEVAEVDKNIELLKKKDEELSSALEKMENQSENNDIDEVIIPTAPLYKQILNLYAEENAIEDTIFYLGEALRRGVIDLDVFLKHVRLLSRKQFQLRALMQKARKTAGLSDLY
notes: range 265-391; bait (Gal4 DBD fusion); also called TSG101 265-390
For B1, the binding result (in experiment [1]; in the experiment with VPS28 protein 10-221) was “binds” each time.

B2: v-akt murine thymoma viral oncogene homolog 1 (AKT1) 1-118 (enzyme, human, UniProt P31749 1-118, looked up)
chain: MSDVAIVKEGWLHKRGEYIKTWRPRYFLLKNDGTFIGYKERPQDVDQREAPLNNFSVAQCQLMKTERPRPNTFIIRCLQWTTVIERTFHVETPEEREEWTTAIQTVADGLKKQEEEEM
notes: bait (Gal4 DBD fusion)
B2: in experiment [2], the binding result is on record as “binds”.

B3: v-akt murine thymoma viral oncogene homolog 1 (AKT1) 1-109 (enzyme, human, UniProt P31749 1-109, looked up)
chain: MSDVAIVKEGWLHKRGEYIKTWRPRYFLLKNDGTFIGYKERPQDVDQREAPLNNFSVAQCQLMKTERPRPNTFIIRCLQWTTVIERTFHVETPEEREEWTTAIQTVADG
notes: bait (Gal4 DBD fusion)
Turning to B3, in experiment [3], the binding result is “binds”.

B4: Tumor Suppressor (TSG101) 264-391 (other, human, UniProt Q99816 264-390, looked up)
chain: KKGHQKLEEMVTRLDQEVAEVDKNIELLKKKDEELSSALEKMENQSENNDIDEVIIPTAPLYKQILNLYAEENAIEDTIFYLGEALRRGVIDLDVFLKHVRLLSRKQFQLRALMQKARKTAGLSDLY
notes: range 264-391; bait (Gal4 DBD fusion)
Take B4: the binding result in experiment [4] is “binds”.

B5: Tumor Suppressor (TSG101) 12-326 (other, human, UniProt Q99816 12-326, looked up)
chain: VSKYKYRDLTVRETVNVITLYKDLKPVLDSYVFNDGSSRELMNLTGTIPVPYRGNTYNIPICLWLLDTYPYNPPICFVKPTSSMTIKTGKHVDANGKIYLPYLHEWKHPQSDLLGLIQVMIVVFGDEPPVFSRPISASYPPYQATGPPNTSYMPGMPGGISPYPSGYPPNPSGYPGCPYPPGGPYPATTSSQYPSQPPVTTVGPSRDGTISEDTIRASLISAVSDKLRWRMKEEMDRAQAELNALKRTEEDLKKGHQKLEEMVTRLDQEVAEVDKNIELLKKKDEELSSALEKMENQSENNDIDEVIIPTAPLYK
notes: bait (Gal4 DBD fusion)
For the molecule B5, the binding result with PIBF1 392-758 is given as “binds”.
